According to patent US20220096653A1, “CONJUGATE COMPRISING LIGAND AND CEACAM5 ANTIBODY FAB FRAGMENT” (ASTELLAS PHARMA INC., priority 2019, published 2022):

Assays:
[1] = parameters: species or system mice (BALB/c nu/nu); conditions: mouse, in vivo
Description: A Gd-labeled conjugate of the conjugate containing a peptide linker produced in one of the above Examples was administered from the tail vein of tumor-bearing mice so that the protein mass was 0.02 mg (100 μL) per animal. As the tumor-bearing mice used in the present Example, mice (BALB/c nu/nu) that were in a tumor-bearing state brought about by transplanting human colorectal cancer cell line LS174T cells (ATCC(registered trademark); CL-188) at 2.0 to 5.0×10^6 cells/mouse subcutaneously on the back before administration of the sample were used. 24 hours after administration of the sample, the mice were sacrificed, the kidneys and the tumor were removed, and the amounts of Gd in the kidneys and in the tumor were measured using ICP-MS. The present test was carried out in 3 cases in each group, and the mean value of the 3 cases was calculated. The amount of Gd contained per kidney after administration was shown as a percentage of the amount of Gd administered (% of dose/tissue), and the amount of Gd contained per g of tumor tissue was shown as a percentage of the total amount of Gd administered (% of dose/g).

[2] = mouse, in vivo
Description: A Gd-labeled conjugate of the conjugate containing a peptide linker produced in one of the above Examples was administered from the tail vein of mice (BALB/c or BALB/c nu/nu) so that the protein mass was 0.02 mg (100 μL) per animal. After about 24 hours, the mice were sacrificed and the kidneys were removed, and the amount of Gd in the kidneys was measured using ICP-MS. The present test was carried out in 3 cases in each group, the mean value of the 3 cases was calculated, and the amount of Gd contained per kidney after administration was shown as a percentage (% of dose/tissue) of the total amount of Gd administered.
Based on the percentage of the control conjugate (% of dose/tissue), the proportion of decrease in the amount of Gd contained in the kidneys of each of the conjugates having a peptide linker was determined and shown in Table 28.

[3] = molecular target: human cancer-specific MUC1 peptide (PTL 1) (human); assay: ELISA on immobilised human cancer-specific MUC1 peptide, 4-parameter fit, duplicate (Example 6-2)
Throughout, for Renal residual amount (tumor-bearing mice) % of dose/tissue: time not given here.

B1: [Gd/DOTA-NH—(CH2CH2O)3—CH2—C(═O)—NH—CH2-(1,3-Ph)-C(═O)-Met-Gly-Lys*-Z2(#N)]p-Fab^2 (conjugate)
heavy: EVQLVESGGGLVQPGGSLRLSCAASGFNIRDTYMHWVRQAPGKGLEWVARIDPANGNSRYVPKFQGRFTISADTSRNTAYLQMNSLRAEDTAVYYCAPFGYYVSDYAMAYWGQGTLVTVSSASTKGPSVFPLAPSSKSTSGGTAALGCLVKDYFPEPVTVSWNSGALTSGVHTFPAVLQSSGLYSLSSVVTVPSSSLGTQTYICNVNHKPSNTKVDKKVEPKSCD
light: DIQLTQSPSSLSASVGDRVTITCRAGESVDIFGVGFLHWYQQKPGKAPKLLIYRASNLESGIPSRFSGSGSRTDFTLTISSLQPEDFATYYCQQTNEDPYTFGQGTKVEIKRTVAAPSVFIFPPSDEQLKSGTASVVCLLNNFYPREAKVQWKVDNALQSGNSQESVTEQDSKDSTYSLSSTLTLSKADYEKHKVYACEVTHQGLSSPVTKSFNRGEC
[1]
  Renal residual amount (tumor-bearing mice) % of dose/tissue: 8.40 % of dose/tissue
  Renal residual amount (tumor-bearing mice) Proportion of decrease: 67.48%
[2]
  % of dose/tissue (amount of Gd contained per kidney): 6.8 % of dose/tissue
  Proportion of decrease (amount of Gd contained in the kidneys): 78.0%

B2: [Gd/DOTA-NH—(CH2CH2O)3—CH2—C(═O)—NH—CH2-(1,3-Ph)-C(═O)-Gly-Lys*-Z2(#N)]p-Fab^2 (conjugate)
heavy: EVQLVESGGGLVQPGGSLRLSCAASGFNIRDTYMHWVRQAPGKGLEWVARIDPANGNSRYVPKFQGRFTISADTSRNTAYLQMNSLRAEDTAVYYCAPFGYYVSDYAMAYWGQGTLVTVSSASTKGPSVFPLAPSSKSTSGGTAALGCLVKDYFPEPVTVSWNSGALTSGVHTFPAVLQSSGLYSLSSVVTVPSSSLGTQTYICNVNHKPSNTKVDKKVEPKSCD
light: DIQLTQSPSSLSASVGDRVTITCRAGESVDIFGVGFLHWYQQKPGKAPKLLIYRASNLESGIPSRFSGSGSRTDFTLTISSLQPEDFATYYCQQTNEDPYTFGQGTKVEIKRTVAAPSVFIFPPSDEQLKSGTASVVCLLNNFYPREAKVQWKVDNALQSGNSQESVTEQDSKDSTYSLSSTLTLSKADYEKHKVYACEVTHQGLSSPVTKSFNRGEC
[2]
  % of dose/tissue (amount of Gd contained per kidney): 17.1 % of dose/tissue
  Proportion of decrease (amount of Gd contained in the kidneys): 44.8%

B3: [Gd/DOTA-NH—(CH2CH2O)3—CH2—C(═O)—NH—CH2-(1,3-Ph)-C(═O)-Met-Gly-Lys*-Z2(#S)]p-Fab^2 (conjugate)
heavy: EVQLVESGGGLVQPGGSLRLSCAASGFNIRDTYMHWVRQAPGKGLEWVARIDPANGNSRYVPKFQGRFTISADTSRNTAYLQMNSLRAEDTAVYYCAPFGYYVSDYAMAYWGQGTLVTVSSASTKGPSVFPLAPSSKSTSGGTAALGCLVKDYFPEPVTVSWNSGALTSGVHTFPAVLQSSGLYSLSSVVTVPSSSLGTQTYICNVNHKPSNTKVDKKVEPKSCD
light: DIQLTQSPSSLSASVGDRVTITCRAGESVDIFGVGFLHWYQQKPGKAPKLLIYRASNLESGIPSRFSGSGSRTDFTLTISSLQPEDFATYYCQQTNEDPYTFGQGTKVEIKRTVAAPSVFIFPPSDEQLKSGTASVVCLLNNFYPREAKVQWKVDNALQSGNSQESVTEQDSKDSTYSLSSTLTLSKADYEKHKVYACEVTHQGLSSPVTKSFNRGEC
[1]
  Renal residual amount (tumor-bearing mice) % of dose/tissue: 9.40 % of dose/tissue
  Renal residual amount (tumor-bearing mice) Proportion of decrease: 63.61%
[2]
  % of dose/tissue (amount of Gd contained per kidney): 7.0 % of dose/tissue
  Proportion of decrease (amount of Gd contained in the kidneys): 77.4%

B4: [Gd/DOTA-NH—CH2-(1,3-Ph)-C(═O)-Met-Gly-Lys*-Z2(#S)]p-Fab^2 (conjugate)
heavy: EVQLVESGGGLVQPGGSLRLSCAASGFNIRDTYMHWVRQAPGKGLEWVARIDPANGNSRYVPKFQGRFTISADTSRNTAYLQMNSLRAEDTAVYYCAPFGYYVSDYAMAYWGQGTLVTVSSASTKGPSVFPLAPSSKSTSGGTAALGCLVKDYFPEPVTVSWNSGALTSGVHTFPAVLQSSGLYSLSSVVTVPSSSLGTQTYICNVNHKPSNTKVDKKVEPKSCD
light: DIQLTQSPSSLSASVGDRVTITCRAGESVDIFGVGFLHWYQQKPGKAPKLLIYRASNLESGIPSRFSGSGSRTDFTLTISSLQPEDFATYYCQQTNEDPYTFGQGTKVEIKRTVAAPSVFIFPPSDEQLKSGTASVVCLLNNFYPREAKVQWKVDNALQSGNSQESVTEQDSKDSTYSLSSTLTLSKADYEKHKVYACEVTHQGLSSPVTKSFNRGEC
[1]
  Renal residual amount (tumor-bearing mice) % of dose/tissue: 12.33 % of dose/tissue
  Renal residual amount (tumor-bearing mice) Proportion of decrease: 52.26%
[2]
  % of dose/tissue (amount of Gd contained per kidney): 12.9 % of dose/tissue
  Proportion of decrease (amount of Gd contained in the kidneys): 58.3%

B5: [Gd/DOTA-NH-CH2-(1,4-Ph)-NH-C(═O)-Met-Ile-NH-(CH2)2-Z1(#N)]p-Fab^5 (Fab, V domains shown)
VH: QVQLVQSGAEVKKPGASVKVSCKASGYTFTNYGLSWVRQAPGQGLEWMGENHPGSGIIYHNEKFRGRVTLTADRSTSTAYMELSSLRSEDTAVYYCARSSGTRGFDYWGQGTLVTVSS
VL: DVVMTQTPLSLSVTPGQPASISCRSSQSIVHSNGNTYLEWYLQKPGQSPQLLIYRVSNRFSGVPDRFSGSGSGTDFTLKISRVEAEDVGVYYCFQGSHGPWTFGQGTKLEIKR
modifications: labeling may sit on this chain; sites not stated; labeling portion (MW 1074) on amino groups of the Fab, sites and chain not stated; 1-2 per Fab by MS; Gln 1 pyroglutamic acid as Fab^5 is defined in paragraph 370
[3]
  EC50: 0.08 nM

B6: Ex-No 109, conjugate of Fab^5 (structure given only as drawing CHEM-US-00166) (Fab, V domains shown)
VH: QVQLVQSGAEVKKPGASVKVSCKASGYTFTNYGLSWVRQAPGQGLEWMGENHPGSGIIYHNEKFRGRVTLTADRSTSTAYMELSSLRSEDTAVYYCARSSGTRGFDYWGQGTLVTVSS
VL: DVVMTQTPLSLSVTPGQPASISCRSSQSIVHSNGNTYLEWYLQKPGQSPQLLIYRVSNRFSGVPDRFSGSGSGTDFTLKISRVEAEDVGVYYCFQGSHGPWTFGQGTKLEIKR
modifications: labeling may sit on this chain; sites not stated; low molecular weight molecule (MW 1216) bound to the Fab, sites and chain not stated; 1-2 per Fab by MS; Gln 1 pyroglutamic acid as Fab^5 is defined in paragraph 370
[3]
  EC50: 0.08 nM

B7: Ex-No 105, conjugate of Fab^5 (structure given only as drawing CHEM-US-00163) (Fab, V domains shown)
VH: QVQLVQSGAEVKKPGASVKVSCKASGYTFTNYGLSWVRQAPGQGLEWMGENHPGSGIIYHNEKFRGRVTLTADRSTSTAYMELSSLRSEDTAVYYCARSSGTRGFDYWGQGTLVTVSS
VL: DVVMTQTPLSLSVTPGQPASISCRSSQSIVHSNGNTYLEWYLQKPGQSPQLLIYRVSNRFSGVPDRFSGSGSGTDFTLKISRVEAEDVGVYYCFQGSHGPWTFGQGTKLEIKR
modifications: labeling may sit on this chain; sites not stated; low molecular weight molecule (MW 1190) bound to the Fab, sites and chain not stated; 1-3 per Fab by MS; Gln 1 pyroglutamic acid as Fab^5 is defined in paragraph 370
[3]
  EC50: 0.11 nM

B8: Ex-No 111, conjugate of Fab^5 (structure given only as drawing CHEM-US-00168) (Fab, V domains shown)
VH: QVQLVQSGAEVKKPGASVKVSCKASGYTFTNYGLSWVRQAPGQGLEWMGENHPGSGIIYHNEKFRGRVTLTADRSTSTAYMELSSLRSEDTAVYYCARSSGTRGFDYWGQGTLVTVSS
VL: DVVMTQTPLSLSVTPGQPASISCRSSQSIVHSNGNTYLEWYLQKPGQSPQLLIYRVSNRFSGVPDRFSGSGSGTDFTLKISRVEAEDVGVYYCFQGSHGPWTFGQGTKLEIKR
modifications: labeling may sit on this chain; sites not stated; low molecular weight molecule (MW 1391) bound to the Fab, sites and chain not stated; 1-2 per Fab by MS; Gln 1 pyroglutamic acid as Fab^5 is defined in paragraph 370
[3]
  EC50: 0.16 nM

B9: Ex-No 103, conjugate of Fab^5 (structure given only as drawing CHEM-US-00162) (Fab, V domains shown)
VH: QVQLVQSGAEVKKPGASVKVSCKASGYTFTNYGLSWVRQAPGQGLEWMGENHPGSGIIYHNEKFRGRVTLTADRSTSTAYMELSSLRSEDTAVYYCARSSGTRGFDYWGQGTLVTVSS
VL: DVVMTQTPLSLSVTPGQPASISCRSSQSIVHSNGNTYLEWYLQKPGQSPQLLIYRVSNRFSGVPDRFSGSGSGTDFTLKISRVEAEDVGVYYCFQGSHGPWTFGQGTKLEIKR
modifications: labeling may sit on this chain; sites not stated; low molecular weight molecule (MW 1115) bound to the Fab, sites and chain not stated; 1-2 per Fab by MS; Gln 1 pyroglutamic acid as Fab^5 is defined in paragraph 370
[3]
  EC50: 0.08 nM

B10: Ex-No 102, conjugate of Fab^5 (structure given only as drawing CHEM-US-00161) (Fab, V domains shown)
VH: QVQLVQSGAEVKKPGASVKVSCKASGYTFTNYGLSWVRQAPGQGLEWMGENHPGSGIIYHNEKFRGRVTLTADRSTSTAYMELSSLRSEDTAVYYCARSSGTRGFDYWGQGTLVTVSS
VL: DVVMTQTPLSLSVTPGQPASISCRSSQSIVHSNGNTYLEWYLQKPGQSPQLLIYRVSNRFSGVPDRFSGSGSGTDFTLKISRVEAEDVGVYYCFQGSHGPWTFGQGTKLEIKR
modifications: labeling may sit on this chain; sites not stated; low molecular weight molecule (MW 1278) bound to the Fab, sites and chain not stated; 1-2 per Fab by MS; Gln 1 pyroglutamic acid as Fab^5 is defined in paragraph 370
[3]
  EC50: 0.07 nM

B11: [Gd/DOTA-NH-CH2-(1,4-Ph)-NH-C(═O)-Met-Ile-NH-(CH2)2-Z1(#S)]p-Fab^5 (Fab, V domains shown)
VH: QVQLVQSGAEVKKPGASVKVSCKASGYTFTNYGLSWVRQAPGQGLEWMGENHPGSGIIYHNEKFRGRVTLTADRSTSTAYMELSSLRSEDTAVYYCARSSGTRGFDYWGQGTLVTVSS
VL: DVVMTQTPLSLSVTPGQPASISCRSSQSIVHSNGNTYLEWYLQKPGQSPQLLIYRVSNRFSGVPDRFSGSGSGTDFTLKISRVEAEDVGVYYCFQGSHGPWTFGQGTKLEIKR
modifications: labeling may sit on this chain; sites not stated; labeling portion (MW 1175) bound via 2-iminothiolane-treated amino groups of the Fab, sites and chain not stated; 1-3 per Fab by MS; Gln 1 pyroglutamic acid as Fab^5 is defined in paragraph 370
[3]
  EC50: 0.09 nM

B12: Ex-No 110, conjugate of Fab^5 (structure given only as drawing CHEM-US-00167) (Fab, V domains shown)
VH: QVQLVQSGAEVKKPGASVKVSCKASGYTFTNYGLSWVRQAPGQGLEWMGENHPGSGIIYHNEKFRGRVTLTADRSTSTAYMELSSLRSEDTAVYYCARSSGTRGFDYWGQGTLVTVSS
VL: DVVMTQTPLSLSVTPGQPASISCRSSQSIVHSNGNTYLEWYLQKPGQSPQLLIYRVSNRFSGVPDRFSGSGSGTDFTLKISRVEAEDVGVYYCFQGSHGPWTFGQGTKLEIKR
modifications: labeling may sit on this chain; sites not stated; low molecular weight molecule (MW 1201) bound to the Fab, sites and chain not stated; 1-2 per Fab by MS; Gln 1 pyroglutamic acid as Fab^5 is defined in paragraph 370
[3]
  EC50: 0.19 nM

B13: [Gd/DOTA-[2,5-(1,2,3,4-tetrahydroisoquinoline)]-C(═O)-Met-Gly-Lys*-C(═S)-NH-(1,4-Ph)-NH-C(═S)]p-Fab^5 (Fab, V domains shown)
VH: QVQLVQSGAEVKKPGASVKVSCKASGYTFTNYGLSWVRQAPGQGLEWMGENHPGSGIIYHNEKFRGRVTLTADRSTSTAYMELSSLRSEDTAVYYCARSSGTRGFDYWGQGTLVTVSS
VL: DVVMTQTPLSLSVTPGQPASISCRSSQSIVHSNGNTYLEWYLQKPGQSPQLLIYRVSNRFSGVPDRFSGSGSGTDFTLKISRVEAEDVGVYYCFQGSHGPWTFGQGTKLEIKR
modifications: labeling may sit on this chain; sites not stated; labeling portion (MW 1228) on amino groups of the Fab, sites and chain not stated; 1-2 per Fab by MS; Gln 1 pyroglutamic acid as Fab^5 is defined in paragraph 370
[3]
  EC50: 0.19 nM

B14: Ex-No 106, conjugate of Fab^5 (structure given only as drawing CHEM-US-00164) (Fab, V domains shown)
VH: QVQLVQSGAEVKKPGASVKVSCKASGYTFTNYGLSWVRQAPGQGLEWMGENHPGSGIIYHNEKFRGRVTLTADRSTSTAYMELSSLRSEDTAVYYCARSSGTRGFDYWGQGTLVTVSS
VL: DVVMTQTPLSLSVTPGQPASISCRSSQSIVHSNGNTYLEWYLQKPGQSPQLLIYRVSNRFSGVPDRFSGSGSGTDFTLKISRVEAEDVGVYYCFQGSHGPWTFGQGTKLEIKR
modifications: labeling may sit on this chain; sites not stated; low molecular weight molecule (MW 1380) bound to the Fab, sites and chain not stated; 1-3 per Fab by MS; Gln 1 pyroglutamic acid as Fab^5 is defined in paragraph 370
[3]
  EC50: 0.1 nM
